Data on one molecule can be found in article PMC9688426, “Comparison of Optical and Electrical Sensor Characteristics for Efficient Analysis of Attachment and Detachment of Aptamer”.

The series deals with thrombin (bovine, UniProt P00735;P00735 318-366;367-625). Description: graphene oxide FET resistance change; TBA adsorbed on graphene oxide; thrombin detected down to 250 pM within 5 min (detection limit, not Kd); Assay buffer and temperature not given in the material (reagents list PBS pH 7.4 and Trizma base); sections 3.2.1-3.2.3 have no text. GOx, trypsin, lysozyme, ficin and goat anti-mouse IgG were purchased, but no result for them is in the material. The note with it: protein: commercial; copies: 1;1.

Take GGTTGGTGTGGTTGG (ssDNA) [TBA]: the binding result was “binds”.
